The values below come from patent US5945329A, “Customized proteases” (Carlsberg A/S, priority 1997, dated 1999).

For orientation: Km means the substrate concentration at which the rate is half of its maximum. The term kcat denotes the maximal rate divided by the concentration of active sites. Usually kcat/Km stands for the second-order rate constant that governs catalysis at low substrate concentration.

The target of series [1] is T1, carboxypeptidase Y (CPD-Y) variant E65A (Glu65 replaced by alanine) (Saccharomyces cerevisiae, UniProt P00729, E176A).
T1 construct: made in house; host or cells: S. cerevisiae W2579 (secreted)
The series can be described thus: Aminolysis; KN(app) of nucleophile. Format: biochemical, yeast. As to conditions: pH 7.5; for Kn,app (H-Val-NH2 as nucleophile): Table VI, substance of the line is the substrate (leaving group varied). How it is done: (§1) Aminolysis reactions were carried out in the following way. The nucleophile was dissolved in 50 mM Hepes, 5 mM EDTA and pH was adjusted to 7.5. Five (5) μl of substrate (8 mM FA-Ala-OBzl in methanol) was added to 190 μl nucleophile solution followed by 5 μl enzyme, resulting in a substrate concentration of 0.2 mM. For reactions carried out at pH 9.5, Hepes was replaced with Ches. During the reaction, 20 μl aliquots were removed from the reaction mixture and added to 50 μl 1% trifluoroacetic acid to quench the reaction. The reactant composition was determined by HPLC using a Waters HPLC equipped with a C-18 Waters Novapac 4μ reverse phase column and various gradients of acetonitrile in 0.1% trifluoroacetic acid. The separation was monitored at 302 nm allowing the direct quantification of the products from the integrated peak areas. The composition of the reaction mixture was determined at least twice during the reaction, the first time when 20-50% (preferably 35%) of the ester substrate had been consumed in the reaction and the second time when 50-90% (preferably 80%) of the substrate had been consumed. The products were collected and identified by amino acid analysis after acid hydrolysis using a Pharmacia Alpha Plus analyzer.
(§2) Further identification was obtained by co-chromatography of authentic standard compounds. The fraction of aminolysis (fa) was expressed as the ratio between the formed aminolysis product and the sum of all products being formed, i.e., unconsumed substrate was disregarded in the calculations. The KN(app), representing the nucleophile concentration at which fa is half the maximum value (a measure for the dissociation constant of the nucleophile), and famax (the highest possible fa obtained at saturation of the enzyme with nucleophile) were determined by fitting the values of fa obtained at a minimum of seven concentrations of nucleophile to a saturation. The value of fa obtained at the highest possible nucleophile concentration is designated fasat.
(§3) Aminolysis reactions were carried out in the following way. The nucleophile was dissolved in 50 mM HEPES, 5 mM EDTA and pH was adjusted to 7.5, 5 μl substrate (8 mM FA-Ala-OBzl or FA-Ala-Xaa-OH in methanol) was added to 190 μl nucleophile solution followed by 5 μl enzyme diluted in buffer to the appropriate concentration, resulting in a substrate concentration of 0.2 mM. During the reaction, 20 μl aliquots were removed from the reaction mixture and added to 50 μl 1% trifluoroacetic acid to quench the reaction. The reactant composition was determined by HPLC using a Waters HPLC equipped with a C-18 Waters Novapac 4μ reverse phase column and various gradients of acetonitrile in 0.1% trifluoroacetic acid. The separation was monitored at 302 nm allowing the direct quantification of the products from the integrated peak areas. The products were collected and identified by amino acid analysis after acid hydrolysis (Pharmacia Alpha Plus analyzer) and by co-chromatography of authentic standards. The fraction of aminolysis (fa) was expressed as the ratio between the formed aminolysis product and the sum of all products being formed, i.e. unconsumed substrate was disregarded in the calculations. The KN,app (a measure for the dissociation constant of the nucleophile) and famax (the highest possible fa obtained at saturation with nucleophile were determined by fitting the obtained fa values to the equation fa=famax /(1+KN,app /N).

The target in series [2] is T2, carboxypeptidase Y (CPD-Y) variant E145A (Glu145 replaced by alanine) (Saccharomyces cerevisiae, UniProt P00729, E256A).
T2 construct: made in house; host or cells: S. cerevisiae W2579 (secreted)
The series can be described thus: Aminolysis; KN(app) of nucleophile. Format: biochemical, yeast. The note with it: pH 7.5; for Kn,app (H-Val-NH2 as nucleophile): Table VI, substance of the line is the substrate (leaving group varied); for Kn,app: Table V, amino acid nucleophile, FA-Ala-OBzl as substrate. How it is done: as §1, §2, §3

The target of series [3] is T3, carboxypeptidase Y (CPD-Y) variant N51Q (Asn51 replaced with glutamine) (Saccharomyces cerevisiae, UniProt P00729, N162Q).
T3 construct: made in house; host or cells: S. cerevisiae W2579 (secreted)
T3 sequence (P00729 112-532 N162Q): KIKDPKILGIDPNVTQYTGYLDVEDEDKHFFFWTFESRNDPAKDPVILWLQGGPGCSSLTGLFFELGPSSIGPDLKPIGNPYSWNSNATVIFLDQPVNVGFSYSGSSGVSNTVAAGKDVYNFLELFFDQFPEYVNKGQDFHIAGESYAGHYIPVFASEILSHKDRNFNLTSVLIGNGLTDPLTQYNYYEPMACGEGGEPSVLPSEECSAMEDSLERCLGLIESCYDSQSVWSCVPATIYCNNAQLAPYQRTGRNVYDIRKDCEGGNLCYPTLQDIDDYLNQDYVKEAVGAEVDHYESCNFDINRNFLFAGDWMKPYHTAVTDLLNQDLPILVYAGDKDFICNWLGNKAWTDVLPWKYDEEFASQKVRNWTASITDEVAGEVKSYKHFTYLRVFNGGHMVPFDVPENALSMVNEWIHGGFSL
The series can be described thus: Aminolysis; KN(app) of nucleophile. Format: biochemical, yeast. As to conditions: for Kn,app (H-Val-NH2 as nucleophile): Table VI, substance of the line is the substrate (leaving group varied); for Kn,app (H-Val-NH2 as nucleophile) / Kn,app: pH 7.5; for KN(app): Table III (unit as in Tables I, II), ester substrate; for KN(app) / Kn,app: amino acid nucleophile; for Kn,app: Table V, FA-Ala-OBzl as substrate. How it is done:
as §1, §2, §3

Series [4] addresses T4, yeast carboxypeptidase Y (CPD-Y), wild type (SEQ ID NO:32) (Saccharomyces cerevisiae, UniProt P00729).
T4 construct: purchased Carlbiotech, Copenhagen, Denmark
T4 sequence (P00729 112-532): T3 sequence (P00729 112-532 N162Q) with Q51N
The series can be described thus: Aminolysis of ester/peptide substrates; KN(app) of nucleophile. It is filed as biochemical. The note with it: for Kn,app (H-Val-NH2 as nucleophile): Table VI, substance of the line is the substrate (leaving group varied); for Kn,app: Table V, FA-Ala-OBzl as substrate. How it is done: as §1, §2, §3

Substrate in series [5]: CC(C)[C@H](NC(=O)[C@H](Cc1ccccc1)NC(=O)C=Cc1ccco1)C(=O)O
The series can be described thus: Hydrolysis of FA-Phe-Val-OH. Format: biochemical, yeast. As to conditions: other: hydrolysis of FA-Phe-Val-OH.

The mark [6] stands for this setting: Table II, amino acid nucleophile, substrate FA-Ala-OBzl, pH 7.5.
The mark [7] stands for this setting: Table III (unit as in Tables I, II), amino acid nucleophile, ester substrate.

Changes are numbered by the printed parent chain. Names may count otherwise.

T2 sequence (P00729 112-532 E256A): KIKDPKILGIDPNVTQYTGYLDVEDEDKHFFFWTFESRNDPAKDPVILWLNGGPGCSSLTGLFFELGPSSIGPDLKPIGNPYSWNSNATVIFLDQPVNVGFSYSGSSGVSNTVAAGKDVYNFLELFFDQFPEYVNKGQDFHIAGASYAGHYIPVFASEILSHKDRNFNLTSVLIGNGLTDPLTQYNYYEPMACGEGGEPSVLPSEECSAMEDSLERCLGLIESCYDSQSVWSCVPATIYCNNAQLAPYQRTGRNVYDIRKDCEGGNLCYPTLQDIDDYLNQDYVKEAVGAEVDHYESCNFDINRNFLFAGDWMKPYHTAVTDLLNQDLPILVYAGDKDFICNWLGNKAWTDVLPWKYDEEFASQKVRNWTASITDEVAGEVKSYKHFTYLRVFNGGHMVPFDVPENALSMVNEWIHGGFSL
T1 sequence (P00729 112-532 E176A): as the sequence (P00729 112-532 E256A) above, with E65A, A145E counted along it

Take `CC(C)C[C@H](NC(=O)[C@H](C)NC(=O)C=Cc1ccco1)C(=O)O` [FA--Ala--Leu--OH, FA-Ala-Leu-OH]: the “Kn,app (H-Val-NH2 as nucleophile)” value in [1] turned out to be 5.2 ± 0.1 mM; in [2], 4.1 ± 0.1 mM; in series [3] it was 2.4 ± 0.1 mM; in [4] (pH 7.5) it was 1.6 ± 0.1 mM.

`C[C@H](NC(=O)C=Cc1ccco1)C(=O)N[C@@H](Cc1ccccc1)C(=O)O` [FA--Ala--Phe--OH, FA-Ala-Phe-OH]: the “Kn,app (H-Val-NH2 as nucleophile)” value amounted to 4.7 ± 0.1 mM in [1], 4.1 ± 0.1 mM in series [2], 3.1 ± 0.1 mM in [3] and 1.1 ± 0.1 mM in series [4] (pH 7.5).

`CC(C)C[C@H](N)C(=O)O` [H--Leu--OH, H-Leu-OH]: the “Kn,app” value is on record as 40 ± 2 mM in series [2]; 42 ± 1 mM in series [3]; 10 ± 1 mM in [4] (amino acid nucleophile, pH 7.5). The results for the “KN(app)” value in series [3], in [4] (setting [6]) and in series [4] (setting [7]) were 42 ± 1 mM, 10 ± 0.8 mM and 10 ± 1 mM, respectively.

Regarding `CC(C)[C@H](N)C(=O)O` [H--Val--OH, H-Val-OH], the “Kn,app” value in [1] (Table V, amino acid nucleophile, FA-Ala-OBzl as substrate) came to 69 ± 2 mM; in series [2], 79 ± 6 mM; in series [3], 61 ± 2 mM; in series [4] (amino acid nucleophile, pH 7.5), 13 ± 1 mM. The “KN(app)” value in series [3] was found to be 61 ± 3 mM; in series [4] (Table I, amino acid nucleophile, substrate FA-Ala-OBzl 0.2 mM, pH 7.5) it was 13 ± 1 mM; in [4] (setting [6]), 13 ± 1 mM; in series [4] (setting [7]) it was 13 ± 1 mM; in series [4] (nucleophile with substrate FA-Ala-OBzl, pH 7.5) it was 13 mM.

Turning to “carboxypeptidase Y mutant 178Ser (enzyme)”, the estimated CPD-Y activity relative to wild type transformants (fold of wild type) is 1.8 in the series with CBZ-Pro-Leu-OH, 1.2 with CBZ-Trp-Leu-OH, 1.1 with CBZ-His-Leu-OH and 1.1 with CBZ-Gly-Leu-OH. Further, the kcat/Km of hydrolysis in the series with CBZ-Phe-Leu-OH stood at 3.33e+06 M⁻¹ s⁻¹; in the series with CBZ-Lys-Leu-OH, 61700 M⁻¹ s⁻¹; with CBZ-Ser-Leu-OH, 100000 M⁻¹ s⁻¹; with CBZ-Glu-Leu-OH it was 12000 M⁻¹ s⁻¹; with CBZ-Ala-Leu-OH, 80000 M⁻¹ s⁻¹.

With “carboxypeptidase Y mutant 178Ser/215Ala/216Pro (enzyme)”, the estimated CPD-Y activity relative to wild type transformants (fold of wild type) was 2.8 with CBZ-Pro-Leu-OH, 1.9 with CBZ-Trp-Leu-OH, 0.9 with CBZ-His-Leu-OH and 0.6 with CBZ-Gly-Leu-OH. The kcat/Km of hydrolysis with CBZ-Phe-Leu-OH was found to be 1.83e+06 M⁻¹ s⁻¹; with CBZ-Lys-Leu-OH, 36700 M⁻¹ s⁻¹; in the series with CBZ-Ser-Leu-OH, 50000 M⁻¹ s⁻¹; with CBZ-Glu-Leu-OH it was 8330 M⁻¹ s⁻¹; with CBZ-Ala-Leu-OH it was 40000 M⁻¹ s⁻¹.

carboxypeptidase Y mutant E65A (enzyme): the famax of transpeptidation (nucleophile H-Val-NH2) with FA-Ala-Leu-OH is 0.71; with FA-Ala-Phe-OH, 0.66; in the series with FA-Ala-Ala-OH, 0.96; in the series with FA-Ala-Val-OH it was 0.67.

In the case of “carboxypeptidase Y mutant E145A (enzyme)”, the values for the famax of transpeptidation (nucleophile H-Val-NH2) with FA-Ala-Leu-OH, with FA-Ala-Phe-OH and with FA-Ala-Val-OH were 0.65, 0.49 and 0.8, respectively.

With carboxypeptidase Y mutant N51Q (enzyme), the kcat/KM of hydrolysis in the series with FA-Phe-Val-OH came to 300000 M⁻¹ s⁻¹. Also, the famax of transpeptidation (nucleophile H-Val-NH2) with FA-Ala-Leu-OH is 0.8; in the series with FA-Ala-Phe-OH, 0.77; with FA-Ala-Ala-OH, 0.98; with FA-Ala-Val-OH, 0.91.

For the molecule carboxypeptidase Y mutant N51S (enzyme), the kcat/KM of hydrolysis in the series with FA-Phe-Val-OH came to 800000 M⁻¹ s⁻¹. Besides, the famax of transpeptidation (nucleophile H-Val-NH2) in the series with FA-Ala-Ala-OH worked out at 0.88; with FA-Ala-Val-OH it was 0.13.

B1: carboxypeptidase Y (CPD-Y) variant N51Q (Asn51 replaced with glutamine) (Saccharomyces cerevisiae S288C; N162Q) (protein)
chain: T3 sequence (P00729 112-532 N162Q)
notes: made in house; host or cells: S. cerevisiae W2579 (secreted)
B1: in [5], the Michaelis constant (Km) was found to be 85 µM, the kcat is 25 s⁻¹ and the kcat/Km was 300000 M⁻¹ s⁻¹.

B2: carboxypeptidase Y (CPD-Y) variant N51S (Asn51 replaced with serine) (Saccharomyces cerevisiae S288C; N162S) (protein)
chain: T3 sequence (P00729 112-532 N162Q) with Q51S
notes: as for B1
As for B2, in series [5], the Michaelis-Menten constant (Km) came to 170 µM, the kcat is 135 s⁻¹ and the kcat/Km turned out to be 800000 M⁻¹ s⁻¹.
